The results in this text go back to PMC2911655.

Substrate in the data set: CCCCCCCC/C=C\CCCCCCCC(=O)OCC(O)CO
The experiment in a line: glycerol release, enzymatic glycerol kit, saturation curve. Format: biochemical, Saccharomyces cerevisiae. The settings on record: pH 7.5, 37 °C, 20 min, substrate complexed to defatted BSA 1:1.

B1: Yju3p (Saccharomyces cerevisiae S288C) (protein)
chain: MAPYPYKVQTTVPELQYENFDGAKFGYMFWPVQNGTNEVRGRVLLIHGFGEYTKIQFRLMDHLSLNGYESFTFDQRGAGVTSPGRSKGVTDEYHVFNDLEHFVEKNLSECKAKGIPLFMWGHSMGGGICLNYACQGKHKNEISGYIGSGPLIILHPHTMYNKPTQIIAPLLAKFLPRVRIDTGLDLKGITSDKAYRAFLGSDPMSVPLYGSFRQIHDFMQRGAKLYKNENNYIQKNFAKDKPVIIMHGQDDTINDPKGSEKFIQDCPSADKELKLYPGARHSIFSLETDKVFNTVFNDMKQWLDKHTTTEAKP
The term Km denotes the concentration of substrate that gives half-maximal velocity. In the case of B1, the Km stood at 260 µM.
